The record followed here is patent publication US20220340678A1 (MURAL ONCOLOGY, published 2022).

Substitutions are numbered along the chain they refer to.

B1: M1-Chimeric (antibody, V domains shown)
VH: EVQLQQSGAELVRPGASVKLSCTASGFNIKDEYINWVKQRPEQGLEWIGWIDPENGDTEYASKFQGKATITADTSSNTAYLQLSSLTSEDTAVYYCTGGNYVGWFPYWGQGTLVTVSA
VL: QIVLTQSPAIMSASPGEKVTMTCSASSSVSYMHWYQQKSGTSPKRWLYDTSKLASGVPARFSGSGSGTSYSLTISSMEAEDAATYYCQQWSSNPPYTFGGGTKLEIK
B2: M1-H3/L4 (antibody, V domains shown)
VH: EVQLQQSGAEVKKPGATVKLSCTASGFNIKDEYINWVKQRPGQGLEWIGWIDPENGDTEYASKFQGRATITADTSTDTAYLELSSLRSEDTAVYYCTGGNYVGWFPYWGQGTLVTVSS
VL: QIVLTQSPATLSASPGERVTMSCSASSSVSYMHWYQQKPGTSPRRWLYDTSKLASGVPARFSGSGSGTDYTLTISSLEPEDFATYYCQQWSSNPPYTFGQGTKLEIKT
notes: also called humanized M1
B3: M1-H3/L1 (antibody, V domains shown)
VH: B2 VH
VL: B2 VL with Q1E, A13L, V19A, M21L, L47I, Y70F, T84V
notes: also called humanized M1
B4: M1-H1/L4 (antibody, V domains shown)
VH: B2 VH with Q5V, L20I, Q43K, A68V
VL: B2 VL
notes: also called humanized M1
B5: M8-Chimeric (antibody, V domains shown)
VH: QIQLVQSGPELKKPGETVKISCKASGNTFTDYGMNWVKQSPGKGLKWMGWINTNTGEPTYADDFKGRFAFSLETSASTAYLQINNLKNEDMATYFCAHYSFDYWGQGTTLTVSS
VL: DIQMTQSPASLSVSVGQTVTITCRTSENIYSNLAWYQQKPGKSPQLLVYAATNLADGVPSRFSGSGSGTQYSLKINSLQSEDFGSYYCQHFWGTPWTFGGGTKLEIK
B6: M8-H3/L2B10 (antibody)
heavy: not shown
light: DIQMTQSPSSLSASVGDTVTITCRTSENIYSNLAWYQQKPGKSPQLLVYAATNLADGVPSRFSGSGSGTDYTLTISSLQPEDFGTYYCQHFWGTPWTFGGGTKVEIKTVAAPSVFIFPPSDEQLKSGTASVVCLLNNFYPREAKVQWKVDNALQSGNSQESVTEQDSKDSTYSLSSTLTLSKADYEKHKVYACEVTHQGLSSPVTKSFNRGEC
notes: also called humanized M8
B7: M8-H3/L2B2 (antibody, V domains shown)
VH: QIQLVQSGSELKKPGASVKISCKASGTTFTDYGMNWVKQSPGKGLKWMGWINTNTGEPTYAEDFKGRFVFSLDTSVSTAYLQISSLKAEDTATYFCAHYSFDYWGQGTLLTVSS
VL: DIQMTQSPSSLSASVGDTVTITCRTSENIYSNLAWYQQKPGKSPQLLVYAATNLADGVPSRFSGSGSGTQYTLKISSLQPEDFATYYCQHFWGTPWTFGGGTKVEIKT
notes: also called humanized M8
B8: M8-H3/L2B5 (antibody)
heavy: not shown
light: B6 light with T18R
notes: also called humanized M8

In this assay the target is T1, histidine-tagged human uPAR (Sino#10925-H08H) (human, UniProt Q03405 23-303).
T1 construct: also called uPAR-His
Nature of the assay: BLI (Octet), antibody on anti-human Fc sensor, uPAR from 50 nM.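 Further: antibodies captured at 10 µg/mL on anti-human Fc biosensors, with uPAR as analyte in a twofold dilution series from 50 nM downward.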
Experimental: Binding affinity analysis was carried out using the Octet platform as described above. Briefly, uPAR antibodies were immobilized via an Anti-human Fc (AHC) sensor. Each uPAR antibody was tested at a concentration of 10 μg/mL. The load was histidine-tagged human uPAR provided over a titration starting at 50 nM with subsequent 2-fold dilutions.
For B1, binding was put at a Kd of 1.11 nM; the koff – broadly, a measure of how fast the partners let go of each other – is 0.000701 s⁻¹; the association rate constant (kon) – broadly, the rate constant with which the complex forms – came to 629000 M⁻¹ s⁻¹.
As for B2, the affinity, expressed as Kd, was 1.3 nM; the koff is 0.000893 s⁻¹; the kon was 686000 M⁻¹ s⁻¹.
For B3 the same measures were 1.64 nM, 0.00111 s⁻¹ and 677000 M⁻¹ s⁻¹.
Take B4: the Kd – broadly, a measure of binding affinity in units of concentration – came out at 1.48 nM; the koff came to 0.000986 s⁻¹; the kon worked out at 665000 M⁻¹ s⁻¹.
The matching figures for B5: 1.79 nM, 0.00049 s⁻¹ and 273000 M⁻¹ s⁻¹.
The matching figures for B6: 2.35 nM, 0.000477 s⁻¹ and 203000 M⁻¹ s⁻¹.
For B7 the same measures were 1.74 nM, 0.000427 s⁻¹ and 246000 M⁻¹ s⁻¹.
Take B8: binding was put at a Kd of 1.65 nM, the koff amounted to 0.000351 s⁻¹ and the kon is 213000 M⁻¹ s⁻¹.
